Holding throughout (experiment): EMSA
Background: Mobility shift assays separate free from complexed probe on a gel.

Data set [1] has as its target T1, Pus7 D256A/N305A (Saccharomyces cerevisiae, UniProt Q08647 1-676, D256A;N305A).
T1 sequence: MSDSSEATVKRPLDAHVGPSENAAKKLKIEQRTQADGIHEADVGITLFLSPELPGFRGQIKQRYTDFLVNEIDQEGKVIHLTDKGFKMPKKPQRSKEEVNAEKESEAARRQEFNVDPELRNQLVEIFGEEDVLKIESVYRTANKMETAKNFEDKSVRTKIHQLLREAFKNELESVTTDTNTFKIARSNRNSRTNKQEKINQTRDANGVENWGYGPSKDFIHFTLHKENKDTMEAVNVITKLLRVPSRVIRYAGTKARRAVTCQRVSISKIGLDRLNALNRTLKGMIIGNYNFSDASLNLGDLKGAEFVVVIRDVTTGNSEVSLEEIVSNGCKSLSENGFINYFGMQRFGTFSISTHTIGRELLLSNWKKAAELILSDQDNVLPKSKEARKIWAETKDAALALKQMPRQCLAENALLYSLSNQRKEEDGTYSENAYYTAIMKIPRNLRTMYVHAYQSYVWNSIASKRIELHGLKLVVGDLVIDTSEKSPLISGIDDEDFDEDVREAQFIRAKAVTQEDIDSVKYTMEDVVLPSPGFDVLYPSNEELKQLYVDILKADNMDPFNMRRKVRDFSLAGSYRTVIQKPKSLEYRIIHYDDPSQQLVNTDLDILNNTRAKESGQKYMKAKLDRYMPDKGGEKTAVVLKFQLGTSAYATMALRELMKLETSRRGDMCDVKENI

For data set [2], the target named is T2, Pus7 D256A/E71A (Saccharomyces cerevisiae, UniProt Q08647 1-676, E71A;D256A).
T2 sequence: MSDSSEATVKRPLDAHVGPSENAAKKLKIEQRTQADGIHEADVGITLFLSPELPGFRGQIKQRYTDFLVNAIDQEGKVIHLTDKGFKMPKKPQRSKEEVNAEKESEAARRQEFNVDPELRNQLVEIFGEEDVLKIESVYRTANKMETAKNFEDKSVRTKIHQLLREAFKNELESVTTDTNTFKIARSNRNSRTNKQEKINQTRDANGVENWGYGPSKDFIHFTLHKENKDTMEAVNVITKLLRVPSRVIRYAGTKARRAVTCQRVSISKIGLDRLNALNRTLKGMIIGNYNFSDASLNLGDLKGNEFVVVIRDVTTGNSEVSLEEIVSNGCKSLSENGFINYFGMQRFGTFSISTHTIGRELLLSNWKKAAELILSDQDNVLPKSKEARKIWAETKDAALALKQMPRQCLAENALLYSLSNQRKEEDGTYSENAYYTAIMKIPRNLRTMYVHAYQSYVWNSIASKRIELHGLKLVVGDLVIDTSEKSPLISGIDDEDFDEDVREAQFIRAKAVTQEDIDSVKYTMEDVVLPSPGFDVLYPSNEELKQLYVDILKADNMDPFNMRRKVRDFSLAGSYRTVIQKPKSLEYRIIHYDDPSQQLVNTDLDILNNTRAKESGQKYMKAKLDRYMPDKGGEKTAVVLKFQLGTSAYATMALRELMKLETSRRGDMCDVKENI

Data set [3] has as its target T3, Pus7 D256A/F307A (Saccharomyces cerevisiae, UniProt Q08647 1-676, D256A;F307A).
T3 sequence: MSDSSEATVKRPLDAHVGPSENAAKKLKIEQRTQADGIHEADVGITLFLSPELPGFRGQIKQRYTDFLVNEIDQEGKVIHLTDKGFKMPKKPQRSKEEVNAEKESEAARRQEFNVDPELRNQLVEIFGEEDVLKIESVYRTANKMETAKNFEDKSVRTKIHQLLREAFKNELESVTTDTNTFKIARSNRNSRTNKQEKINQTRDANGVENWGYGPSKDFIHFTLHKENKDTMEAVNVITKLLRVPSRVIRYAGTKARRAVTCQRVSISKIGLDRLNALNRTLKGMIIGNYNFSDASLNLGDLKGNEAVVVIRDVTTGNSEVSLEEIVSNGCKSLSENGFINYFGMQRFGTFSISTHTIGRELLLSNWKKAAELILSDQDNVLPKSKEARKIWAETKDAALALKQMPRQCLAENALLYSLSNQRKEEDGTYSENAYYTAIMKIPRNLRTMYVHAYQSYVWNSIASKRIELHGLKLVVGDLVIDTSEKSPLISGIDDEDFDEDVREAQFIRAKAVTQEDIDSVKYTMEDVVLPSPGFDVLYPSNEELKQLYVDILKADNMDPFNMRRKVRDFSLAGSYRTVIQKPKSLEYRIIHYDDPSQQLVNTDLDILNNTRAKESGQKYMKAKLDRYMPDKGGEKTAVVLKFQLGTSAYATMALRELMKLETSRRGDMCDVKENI

B1: CDC8 (cdc8-FL, 61 nt) (ssRNA)
RNA: GUCAAUCACGAUUGUAGACGUUACUAAUAAGGGCAUUCAGGAAGUUGAAGCGCUUAUUUGG
B1: the equilibrium dissociation constant (Kd) is 230 ± 60 nM in data set [1], 210 ± 50 nM in data set [2] and 340 ± 170 nM in data set [3].

A word on the Kd: it is a measure of binding affinity in units of concentration. Lower therefore signals higher affinity.
